Data taken from paper PMC8988010 (The Journal of Biological Chemistry, 2021).
Numbering of substitutions follows the chain as printed. Names and notes keep the numbering of the source.

How the values were obtained:
[1] = target: HNF-1A DD-DBD R263C (Homo sapiens, UniProt P20823 1-279, R263C); experiment: ITC
[2] = target: HNF-1A DD-DBD N266S (Homo sapiens, UniProt P20823 1-279, N266S); experiment: ITC
[3] = target: HNF-1A DBD N266S (Homo sapiens, UniProt P20823 83-279, N266S); experiment: ITC
[4] = target: HNF-1A DBD R263C (Homo sapiens, UniProt P20823 83-279, R263C); experiment: ITC
Chain of HNF-1A DBD R263C (P20823 83-279 R263C): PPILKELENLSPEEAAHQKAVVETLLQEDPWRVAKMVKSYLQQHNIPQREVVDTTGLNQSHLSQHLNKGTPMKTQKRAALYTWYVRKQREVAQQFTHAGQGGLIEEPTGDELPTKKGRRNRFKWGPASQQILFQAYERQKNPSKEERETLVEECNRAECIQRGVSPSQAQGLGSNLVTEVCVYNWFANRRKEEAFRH

[5] = target: the molecule itself; experiment: SEC-MALS

Chain of HNF-1A DBD N266S (P20823 83-279 N266S): as the sequence (P20823 83-279 R263C) above, with C181R, N184S counted along it
Chain of HNF-1A DD-DBD N266S (P20823 1-279 N266S): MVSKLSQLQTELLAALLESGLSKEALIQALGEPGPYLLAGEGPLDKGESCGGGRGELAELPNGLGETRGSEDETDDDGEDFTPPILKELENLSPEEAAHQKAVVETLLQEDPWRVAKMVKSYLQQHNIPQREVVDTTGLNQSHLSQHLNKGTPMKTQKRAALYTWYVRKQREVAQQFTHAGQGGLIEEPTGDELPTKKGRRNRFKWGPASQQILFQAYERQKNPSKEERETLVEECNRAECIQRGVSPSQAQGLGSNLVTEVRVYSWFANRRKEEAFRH

B1: RA (rat albumin promoter oligonucleotide), unlabeled (dsDNA)
DNA 1: CTTGGTTAATAATTCACCAGA
DNA 2: TCTGGTGAATTATTAACCAAG
B1 gave a Kd [1] of 8000 ± 3000 nM, a Kd [2] of 740 ± 110 nM and a Kd [3] of 570 ± 50 nM. The Kd [4] was 2000 ± 140 nM.

B2: HNF-1A DD-DBD (hepatocyte nuclear factor 1A, residues 1-279, WT) (domain or fragment, human, UniProt P20823 1-279, looked up)
chain: MVSKLSQLQTELLAALLESGLSKEALIQALGEPGPYLLAGEGPLDKGESCGGGRGELAELPNGLGETRGSEDETDDDGEDFTPPILKELENLSPEEAAHQKAVVETLLQEDPWRVAKMVKSYLQQHNIPQREVVDTTGLNQSHLSQHLNKGTPMKTQKRAALYTWYVRKQREVAQQFTHAGQGGLIEEPTGDELPTKKGRRNRFKWGPASQQILFQAYERQKNPSKEERETLVEECNRAECIQRGVSPSQAQGLGSNLVTEVRVYNWFANRRKEEAFRH
For B2, the “stoichiometry N” value [5] was 2.

B3: HNF-1A DD-DBD/R263C (residues 1-279, MODY3 variant p.Arg263Cys) (domain or fragment, human, UniProt P20823 1-279, looked up)
chain: B2 chain with R263C
With B3 the “stoichiometry N” value [5] was 2.

B4: HNF-1A DD-DBD/N266S (residues 1-279, variant p.Asn266Ser) (domain or fragment, human, UniProt P20823 1-279, looked up)
chain: B2 chain with N266S
B4: binds [5].
